Molecular target: F-actin (filamentous actin, purified from chicken breast) (Gallus gallus (chicken)) (UniProt P68139)
Assay: co-sedimentation

Row | Kd | Substance
1 | 1.8 µM | Human UTRN-ABD (utrophin actin binding domain, amino acids 1-261) (from UniProt P46939 1-261) (domain or fragment)
2 | 38 µM | UTRN-ABD I22D (from UniProt P46939 1-261) (domain or fragment)
3 | > 100 µM | UTRN-ABD V87D (from UniProt P46939 1-261) (domain or fragment)
4 | 55 µM | UTRN-ABD N109A (from UniProt P46939 1-261) (domain or fragment)
5 | 2.8 µM | UTRN-ABD H29A (from UniProt P46939 1-261) (domain or fragment)
